T1: human GFRα3 expressed with a C-terminal mFc tag (human)
T1 construct: also called hGFRα3-mFc
T1 chain: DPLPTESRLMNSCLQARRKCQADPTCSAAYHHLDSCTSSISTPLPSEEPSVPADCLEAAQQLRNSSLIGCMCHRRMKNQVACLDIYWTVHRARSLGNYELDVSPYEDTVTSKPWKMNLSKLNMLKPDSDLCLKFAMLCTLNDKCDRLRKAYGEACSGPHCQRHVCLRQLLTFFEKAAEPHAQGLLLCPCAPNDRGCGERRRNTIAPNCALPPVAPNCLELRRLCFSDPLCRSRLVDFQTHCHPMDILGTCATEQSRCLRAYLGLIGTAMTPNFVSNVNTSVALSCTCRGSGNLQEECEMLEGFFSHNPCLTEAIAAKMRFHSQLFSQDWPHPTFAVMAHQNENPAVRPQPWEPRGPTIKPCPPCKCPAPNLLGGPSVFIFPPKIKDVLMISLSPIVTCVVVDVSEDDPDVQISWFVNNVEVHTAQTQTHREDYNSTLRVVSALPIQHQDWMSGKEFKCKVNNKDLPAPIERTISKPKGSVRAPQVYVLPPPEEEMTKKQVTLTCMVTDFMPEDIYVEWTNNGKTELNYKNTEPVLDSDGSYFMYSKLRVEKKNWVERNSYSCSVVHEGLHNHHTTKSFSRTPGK


How the values were obtained:
[1] = molecular target: T2, human GFRα3 expressed with a C-terminal myc-myc-hexahistidine tag (human, UniProt O60609 32-374, biotinylated (sites not given) in ELISA format 2 and in the Octet cross-competition; not in SPR); assay: Octet cross-competition; biotin-hGFRα3-mmH pre-saturated with first antibody H4H2357S
T2 construct: also called hGFRα3-mmh; hGFRα3-mmH
Method: (§1) A cross-competition assay was conducted to assess the ability of select antibodies to compete with one another for binding to human GFRα3 using an Octet RED384 biosensor (Fortebio Inc.). The entire experiment was performed at 25° C. with the flow rate of 1000 rpm in Octet HBST buffer (0.01 M HEPES pH7.4, 0.15M NaCl, 3 mM EDTA, 0.05% v/v Surfactant P20, 0.1 mg/mL BSA). To assess whether 2 antibodies were able to compete with one another for binding to their respective epitopes on biotinylated recombinant human GFRα3 expressed with a C-terminal myc-myc-hexahistidine tag (biotin-hGFRα3-mmH; SEQ ID:370), around ˜1.2 nm of biotin-hGFRα3-mmH was first captured onto streptavidin-coated Octet sensor tips (Fortebio Inc, #18-5019) by submerging the tips for 1 minute into a 10 μg/mL solution of biotin-hGFRα3-mmH. The antigen coated sensor tips were then placed into wells containing 25 μg/mL solution of a first anti-GFRα3 monoclonal antibody for 4 minutes to saturate the biotin-hGFRα3-mmH surface. The sensor tips were then subsequently dipped into wells containing 25 μ/mL solution of a second anti-GFRα3 monoclonal antibody. The sensor tips were washed in Octet HBST buffer in between every step of the experiment. The real-time binding response was monitored during the course of the experiment and the binding response at the end of every step was recorded as shown in FIG. 9. The response of mAb-2 binding to biotin-hGFRα3-mmH pre-complexed with the first antibody was compared and competitive/non-competitive behavior of different anti-GFRα3 monoclonal antibodies was determined.

[2] = molecular target: T2, human GFRα3 expressed with a C-terminal …; assay: Octet cross-competition; biotin-hGFRα3-mmH pre-saturated with first antibody H4H2352S
Method: as §1

[3] = molecular target: T2, human GFRα3 expressed with a C-terminal …; assay: Octet cross-competition; biotin-hGFRα3-mmH pre-saturated with first antibody H4H2296S
Method: as §1

[4] = molecular target: T1, human GFRα3 expressed with a C-terminal …; assay: SPR, Ab captured, 37C
Method: (§2) Antibodies were tested for binding to human GFRα3 expressed with either a C-terminal myc-myc-hexahistidine tag (hGFRα3-mmh; SEQ ID: 370, a C-terminal hFc tag (hGFRα3-hFc; SEQ ID:371), or a C-terminal mFc tag (hGFRα3-mFc; SEQ ID:372), as well as monkey GFRα3 expressed with a C-terminal myc-myc-hexahistidine tag (MfGFRα3-mmh; SEQ ID:373). Anti-GFRα3 antibodies were captured on either a goat anti-mouse IgG polyclonal antibody (GE Healthcare, #BR-1008-38) or a mouse anti-human IgG monoclonal antibody (GE Healthcare, #BR-1008-39) surface created through direct amine coupling to a Biacore CM5 sensor chip. Kinetic experiments were carried out using HBS-EP (10 mM HEPES, 150 mM NaCl, 3 mM EDTA, 0.05% Surfactant P20, at pH 7.4) or PBS buffer containing 0.05% v/v surfactant P20 as both the running buffer and the sample buffer. Binding to human GFRα3-mmh or monkey GFRα3-mmh was evaluated by injecting several concentrations ranging from 200 to 7.4 nM (3-fold dilutions) across the captured antibody surface. Binding to human GFRα3-mFc or human GFRα3-hFc was evaluated by injecting several concentrations ranging from 100 to 3.7 nM (3-fold dilutions) across the captured antibody surface. Antibody-antigen association was monitored for up to 4 minutes, while dissociation in buffer was monitored for up to 20 minutes. Kinetic association (kₐ) and dissociation (kd) rate constants were determined by processing and fitting the data to a 1:1 binding model using Scrubber 2.0c curve fitting software. Binding dissociation equilibrium constants (KD) and dissociative half-lives (t_{1/2}) were calculated from the kinetic rate constants as: KD (M)=kd/kₐ and t_{1/2} (min)=[ln 2/(60*kd)].

[5] = molecular target: T2, human GFRα3 expressed with a C-terminal …; assay: SPR, Ab captured, 37C
Method: as §2

[6] = molecular target: T2, human GFRα3 expressed with a C-terminal …; assay: Octet cross-competition; biotin-hGFRα3-mmH pre-saturated with first antibody H4H2292S
Method: as §1

Binder	binding response of second antibody (nm) [1] [nm]	binding response of second antibody (nm) [2] [nm]	binding response of second antibody (nm) [3] [nm]	Kd [4] [nM]	koff [4] [s⁻¹]	kon [4] [M⁻¹ s⁻¹]	t1/2 [4] [min]	Kd [5] [nM]	koff [5] [s⁻¹]	kon [5] [M⁻¹ s⁻¹]	t1/2 [5] [min]	binding response of second antibody (nm) [6] [nm]
H4H2342P (antibody, human IgG4, V domains shown, human IgG4 Fc (H4H)) VH: EVQLLESGGGLVQPGGSLRLSCAASGFTFSTYAMSWVRQAPGKGLEWVSAIRGNGVNTYYGDSMKGRFTISRDNSKDTLYLQMNSLRAEDTAVYYCAKNKWELLVFEYWGQGTLVTVSS VL: DIQMTQSPSSLSASVGDRVTITCRASQDISNYLAWYQQKPGKVPKLLIYAASTLQSGVPFRFSGSGSGTDFTLTISSLQPEDVATYYCQKYNSAPPFGPGTKVDIK	-0.01	2.08	0.03	0.0354	4.28e-05	1.21e+06	270	2.03	0.000671	330000	17	2.16
H4H2291S (antibody, human IgG4, V domains shown, human IgG4 Fc (H4H)) VH: EVQLVESGGGLVQPGESLRLSCAASGFTFSNYAMSWVRQAPGKGLEWVSVISGSGGSTYYADSVKGRFTMSRDNSKNTLYLQMNSLRAEDTAVYYCAKPPSRAARYFNYGMDVWGQGTTVTVSS VL: AIRMTQSPSSVSASVGDRVTITCRASQGISSWLAWYQQKPGKAPKLLIYAASSLQSGVPSRFSGSGSGTDFTLTISSLQPEDFATYYCQQANSFPFTFGGGTKVEIK	0.18	2.63	0.18	0.0289	3.84e-05	1.33e+06	301	0.58	0.000323	558000	36	2.81
H4H2357S (antibody, human IgG4, V domains shown, human IgG4 Fc (H4H)) VH: EVQLVESGGGLVQPGGSLRLSCAASTFTFSSYAMTWVRQAPGKGLEWVSSISGSGDSTYYADSVKGRFTISRDNSKNTLFLQMNSLRAEDTAVYYCAKKDGPGRYYVRYGMDVWGQGTTVTVSS VL: DIQMTQSPSSVSASVGDRVTITCRASQGISSWLAWYQQKPGKAPKLLIYTTSSLQSGVPSRFSGSGSGTDFTLTISSLQPEDFATYYCQQANSFPLTFGGGTKVDIK	0.04	2.45	0.06	0.0793	9.4e-05	1.19e+06	123	7.12	0.0021	295000	6	2.43
H4H2295S (antibody, human IgG4, V domains shown, human IgG4 Fc (H4H)) VH: EVQLVESGGGLVQAGGSLRLSCVASGFTFSSYAMSWVRQAPGKGLEWVSAISGSGGSTYSADSVKGRFTISRDNSKNTLYLQMNSLRAEDTAVYYCTKPSSYSSSNFYYGMDVWGQGTTVTVSS VL: DIQMTQSPSSVSASVGDRVTITCRASQGISSWLAWYQQKPGKAPKLLIYTASSLQSGVPSRFSGSGSRTDFTLTISSLQPEDFATYYCQQTNSLPLTFGPGTKVEIK	0.12	2.31	0.05	0.0301	4.88e-05	1.62e+06	237	1.77	0.00119	669000	10	2.31
H4H2296S (antibody, human IgG4, V domains shown, human IgG4 Fc (H4H)) VH: not shown VL: DIVMTQSPSSVSASVGDRVTITCRASQGISSWLAWYQQKPGKAPKLLIYAASSLRSGVPSRFSGSGSGTDFTLTITSLQPEDFATYYCQHTNSFPFTFGPGTKVEIK	0.06	2.35	0.07	0.0294	4.74e-05	1.61e+06	244	0.802	0.000614	765000	19	2.36
H4H2294S (antibody, human IgG4, V domains shown, human IgG4 Fc (H4H)) VH: EVQLVESGGGLVQPGGSLRLSCAASGFTFSSYAMSWVRQAPGKGLEWVSVISGSGGSTYYADAVKGRFTISRDNSKHTLYLQMNSLRAEDTAVYYCTKPSSYSSSNFYYGMDVWGQGSTVTVSS VL: DIQLTQSPSSVSASVGDRVTITCRASQGISSWLAWYQQKPGKAPKLLIYAASSLQSGVPSRFSGSGSGTDFTLTISSLQPEDFATYYCQQTNSFPFPFGPGTKVDIK	0.05	2.25	0.04	0.0209	3.46e-05	1.66e+06	334	0.338	0.000261	773000	44	2.31
H4H2355S (antibody, human IgG4, V domains shown, human IgG4 Fc (H4H)) VH: EVQLVESGGGLVQPGGSLRLSCAASGFTFSSYAMSWVRQVPGKGLEWVSAISGSGDNTYNAESVKGRFTISRDNSKNMLYLQMNSLRAEDTAVYYCAKTKFSSSLLFDYWGQGTLVTVSS VL: not shown	0	2.12	0.02	0.031	3.39e-05	1.1e+06	341	4.37	0.00123	281000	9	2.07
H4H2243N2 (antibody, human IgG4, V domains shown, human IgG4 Fc (H4H)) VH: QVQLVQSGAEVKKPGASVKVSCKASGYTFTSYGIIWVRQAPGQGLEWMGWISGYNGNTNYAQNLQGRVTMTTDTSTTTAYMELRSLRSDDTAVYYCARWGIATRPYYYYGMDVWGQGTTVTVSS VL: DIQMTQSPSSLSASVGDRVTITCRASQDITNYLAWFQQKPGKAPKSLIYAASSLQSGVPSKFSGSGSGTDFTLTISSLQPEDFATYYCQQYNSYPPTFGPGTKVDIK	0.01	0.13	0.06	–	–	–	–	5.2	0.00244	469000	5	1.91

From patent US20140056903A1 (Regeneron, published 2014)
